Ends that are not written are not given here.
T1: NRP2a_scan 3 peptide (biotinylated) (human, also: biotin-conjugated, site not given here)
T1 peptide: HEREGYEDEIDD

T2: NRP2a_scan 6 peptide (biotinylated) (human, also: biotin-conjugated, site not given here)
T2 peptide: IDDEYEVDWSNS

T3: NRP2a_scan 1 peptide (biotinylated) (human, also: biotin-conjugated, site not given here)
T3 peptide: VDIPEIHEREGY

T4: Mid-NRP2A peptide (biotinylated) (human, biotin-conjugated, site not stated)
T4 peptide: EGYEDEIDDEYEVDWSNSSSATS

T5: NRP2a_scan 4 peptide (biotinylated) (human, also: biotin-conjugated, site not given here)
T5 peptide: EGYEDEIDDEYE

T6: Mid-mNRP2A peptide (biotinylated) (mouse, biotin-conjugated, site not stated)
T6 peptide: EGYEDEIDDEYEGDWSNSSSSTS

T7: NRP2a_scan 7 peptide (biotinylated) (human, also: biotin-conjugated, site not given here)
T7 peptide: EYEVDWSNSSSA

T8: NRP2a_scan 5 peptide (biotinylated) (human, also: biotin-conjugated, site not given here)
T8 peptide: EDEIDDEYEVDW

T9: NRP2a_scan 2 peptide (biotinylated) (human, also: biotin-conjugated, site not given here)
T9 peptide: PEIHEREGYEDE

T10: NRP2v3
T10 construct: not the NanoLuc-tagged construct m33; also called human NRP2 v3 expressed on Expi293F cells; NRP2a v3
T10 chain: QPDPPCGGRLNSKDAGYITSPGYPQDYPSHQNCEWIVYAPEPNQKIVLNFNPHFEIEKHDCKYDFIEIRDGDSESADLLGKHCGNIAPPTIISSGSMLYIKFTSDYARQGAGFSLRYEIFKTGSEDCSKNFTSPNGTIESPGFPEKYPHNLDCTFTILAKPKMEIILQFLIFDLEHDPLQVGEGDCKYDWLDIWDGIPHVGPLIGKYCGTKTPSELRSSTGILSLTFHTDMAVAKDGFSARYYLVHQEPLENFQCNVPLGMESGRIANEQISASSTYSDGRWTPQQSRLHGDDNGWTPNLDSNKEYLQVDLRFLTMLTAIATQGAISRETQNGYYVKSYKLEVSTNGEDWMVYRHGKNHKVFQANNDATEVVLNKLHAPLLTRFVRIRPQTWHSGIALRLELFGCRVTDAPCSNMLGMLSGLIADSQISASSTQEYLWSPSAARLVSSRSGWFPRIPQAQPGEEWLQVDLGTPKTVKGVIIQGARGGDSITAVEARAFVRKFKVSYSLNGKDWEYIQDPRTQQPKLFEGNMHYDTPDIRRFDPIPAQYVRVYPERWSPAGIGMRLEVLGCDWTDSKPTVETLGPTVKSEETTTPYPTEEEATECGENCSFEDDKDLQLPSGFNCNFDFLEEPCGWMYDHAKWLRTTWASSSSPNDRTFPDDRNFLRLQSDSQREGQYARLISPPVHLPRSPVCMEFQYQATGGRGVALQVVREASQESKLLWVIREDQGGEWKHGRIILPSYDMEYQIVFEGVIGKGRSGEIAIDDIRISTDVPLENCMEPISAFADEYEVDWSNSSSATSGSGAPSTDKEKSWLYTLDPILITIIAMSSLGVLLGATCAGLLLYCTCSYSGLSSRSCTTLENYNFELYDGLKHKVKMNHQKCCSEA

T11: NRP2b peptide (biotinylated) (human, biotin-conjugated, site not stated)
T11 construct: also called NRP2b isoform specific peptide
T11 peptide: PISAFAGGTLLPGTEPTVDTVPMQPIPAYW

T12: human NRP2b expressed on Expi293F cells (human)
T12 construct: also called full length NRP2b
T12 chain: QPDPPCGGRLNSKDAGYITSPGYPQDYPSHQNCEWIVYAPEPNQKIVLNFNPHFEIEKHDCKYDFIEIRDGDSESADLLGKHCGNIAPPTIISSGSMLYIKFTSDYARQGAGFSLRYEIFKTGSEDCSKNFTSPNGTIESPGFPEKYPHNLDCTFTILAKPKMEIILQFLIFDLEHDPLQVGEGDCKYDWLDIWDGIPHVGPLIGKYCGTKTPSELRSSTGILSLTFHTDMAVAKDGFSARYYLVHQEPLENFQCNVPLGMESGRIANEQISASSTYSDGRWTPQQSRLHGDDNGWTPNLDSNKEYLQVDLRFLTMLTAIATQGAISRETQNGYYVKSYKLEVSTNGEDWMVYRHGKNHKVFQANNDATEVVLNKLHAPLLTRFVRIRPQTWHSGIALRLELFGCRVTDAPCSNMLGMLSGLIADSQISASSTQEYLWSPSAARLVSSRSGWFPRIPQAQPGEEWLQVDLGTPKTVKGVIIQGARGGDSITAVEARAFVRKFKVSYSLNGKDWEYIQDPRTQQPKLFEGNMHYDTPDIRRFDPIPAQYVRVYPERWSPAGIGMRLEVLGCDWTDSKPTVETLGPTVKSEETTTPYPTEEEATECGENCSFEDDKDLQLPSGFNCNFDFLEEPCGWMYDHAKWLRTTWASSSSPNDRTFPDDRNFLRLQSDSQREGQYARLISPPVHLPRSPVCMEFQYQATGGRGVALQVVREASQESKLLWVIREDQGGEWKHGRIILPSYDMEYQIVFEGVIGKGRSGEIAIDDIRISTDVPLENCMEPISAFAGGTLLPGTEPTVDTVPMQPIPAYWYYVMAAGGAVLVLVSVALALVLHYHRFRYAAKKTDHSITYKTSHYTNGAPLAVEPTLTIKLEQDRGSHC


Tests used:
[1] = target: T13, NRP2A peptide (biotinylated) (human, biotin-conjugated, site not stated); assay: BLI, isoform peptide on sensor, 50 nM antibody
T13 construct: also called NPR2A; NRP2a specific peptide

[2] = target: T1, NRP2a_scan 3 peptide (biotinylated); assay: BLI, peptide on sensor;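 note: octet RED96e biolayer interferometry with biotin-conjugated NRP2 peptides spanning isoform-specific regions (human and mouse) loaded on biosensors, antibodies applied at 50 nM, association read over 300 s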
Procedure: (§1) Biolayer interferometry (BLI) experiments were carried out on an Octet RED96e instrument (Sartorius) to further characterize antibody affinities to the NRP2 peptides screened above. Antibodies were epitope mapped using peptides that span the NRP2a isoform specific region; antibodies were also tested for reactivity to an NRP2b isoform specific peptide and cross-reactivity to mNRP2a and mNRP2b peptides (see Table E2 for peptide sequences).
(§2) Antibodies and peptides were diluted in 1×PBS, 0.1% BSA, 0.02% Tween 20, pH 7.4. […] The biosensors were then dipped into 50 nM solutions of each antibody and read for 300s. The biosensors were regenerated in 10 mM glycine, pH 1.5 in between cycles of different antibodies.

[3] = target: T2, NRP2a_scan 6 peptide (biotinylated); assay: BLI, peptide on sensor;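 note: octet RED96e biolayer interferometry with biotin-conjugated NRP2 peptides spanning isoform-specific regions (human and mouse) loaded on biosensors, antibodies applied at 50 nM, association read over 300 s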
Procedure: as §1, §2

[4] = target: T3, NRP2a_scan 1 peptide (biotinylated); assay: BLI, peptide on sensor;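 note: octet RED96e biolayer interferometry with biotin-conjugated NRP2 peptides spanning isoform-specific regions (human and mouse) loaded on biosensors, antibodies applied at 50 nM, association read over 300 s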
Procedure: as §1, §2

[5] = target: T4, Mid-NRP2A peptide (biotinylated); assay: BLI, peptide on sensor;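 note: octet RED96e biolayer interferometry with biotin-conjugated NRP2 peptides spanning isoform-specific regions (human and mouse) loaded on biosensors, antibodies applied at 50 nM, association read over 300 s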
Procedure: as §1, §2

[6] = target: T5, NRP2a_scan 4 peptide (biotinylated); assay: BLI, peptide on sensor
Procedure: as §1, §2

[7] = target: T6, Mid-mNRP2A peptide (biotinylated); assay: BLI, peptide on sensor
Procedure: as §1, §2

[8] = target: T7, NRP2a_scan 7 peptide (biotinylated); assay: BLI, peptide on sensor
Procedure: as §1, §2

[9] = target: Short NRP2A peptide (biotinylated) (human, biotin-conjugated, site not stated); assay: BLI, peptide on sensor
[10] = target: T8, NRP2a_scan 5 peptide (biotinylated); assay: BLI, peptide on sensor
Procedure: as §1, §2

[11] = target: T9, NRP2a_scan 2 peptide (biotinylated); assay: BLI, peptide on sensor
Procedure: as §1, §2

[12] = target: T14, human NRP2a v2 expressed on Expi293F cells (human, UniProt O60462 23-931); assay: flow cytometry, Expi293F cells transfected with the target, fluorescent anti-mouse secondary; MFI signal relative to mock-transfected cells
T14 construct: cDNA Origene RCC220706; also called NRP2 v2
Procedure: (§3) Signal to noise was calculated as the staining intensity of transfected cells compared to an un-transfected ‘mock’ population.

NRP2v3 = target: T10, NRP2v3; assay: as above
Procedure: as §3

[13] = target: T15, mNRP2A peptide (biotinylated) (mouse, biotin-conjugated, site not stated); assay: BLI, peptide on sensor, 50 nM antibody
T15 construct: also called mouse NRP2 isoform a peptide

[14] = target: T16, mNRP2b peptide (biotinylated) (mouse, biotin-conjugated, site not stated); assay: BLI, peptide on sensor, 50 nM antibody
T16 sequence (peptide, as listed by the source): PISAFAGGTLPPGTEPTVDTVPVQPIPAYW

[15] = target: T11, NRP2b peptide (biotinylated); assay: peptide ELISA
[16] = target: T17, Human NRP2a v2 (926aa) in pBiT2.1-C with C-terminal split NanoLuc tag, expressed in Expi293 cells (human, UniProt O60462 23-931); assay: CCL21-induced NRP2a/CCR7 receptor dimerization (NanoBiT, Example 7); mark beside the epitope box
T17 construct: cDNA Origene RCC220706, isoform 2; also called pBiT2.1-C-NRP2v2 (isoform 2); NRP2 v2; not shown: vector-encoded spacer and small split NanoLuc fragment (pBiT2.1-C)

[17] = target: T12, human NRP2b expressed on Expi293F cells; assay: flow cytometry, Expi293F cells transfected with the target, fluorescent anti-mouse secondary; MFI signal relative to mock-transfected cells
Procedure: as §3

[18] = target: T2, NRP2a_scan 6 peptide (biotinylated); assay: BLI, peptide on sensor, 50 nM antibody
[19] = target: T4, Mid-NRP2A peptide (biotinylated); assay: BLI, peptide on sensor, 50 nM antibody
[20] = target: T8, NRP2a_scan 5 peptide (biotinylated); assay: BLI, peptide on sensor, 50 nM antibody
[21] = target: T11, NRP2b peptide (biotinylated); assay: BLI, peptide on sensor
[22] = target: T16, mNRP2b peptide (biotinylated); assay: BLI, peptide on sensor
Procedure: as §1, §2

binding result [1]	binding result [2]	binding result [3]	binding result [4]	binding result [5]	binding result [6]	binding result [7]	binding result [8]	binding result [9]	binding result [10]	binding result [11]	binding result [12]	binding result (NRP2v3)	binding result [13]	binding result [14]	binding result [17]	Binder	also measured
binds	no binding (tested: 50 nM)	no binding (tested: 50 nM)	no binding (tested: 50 nM)	no binding (tested: 50 nM)	no binding (tested: 50 nM)	no binding (tested: 50 nM)	no binding (tested: 50 nM)	no binding (tested: 50 nM)	no binding (tested: 50 nM)	no binding (tested: 50 nM)	binds	binds	binds	binds		aNRP2-406v2 (antibody, V domains shown, Mouse monoclonal) VH: EVQLQQSGPELVKPGASVKISCKASGYSFTGYFMNWVKQSHGKSLEWIGRINPYNGDTFYNQKFKGKATLTVDKSSSTAHMALLSLTSEDSAVYYCGREVAEVPFDYWGQGTTLTVSS VL: not shown	
binds	no binding (tested: 50 nM)		no binding (tested: 50 nM)		no binding (tested: 50 nM)		no binding (tested: 50 nM)	no binding (tested: 50 nM)		no binding (tested: 50 nM)		binds	binds		no binding	aNRP2-402v2 (antibody, V domains shown, Mouse monoclonal) VH: EVQLVESGGDLVKPGGSLKLSCAASGFTFSNYAMSWVRQTPEKRLEWVASISDGGSYTYYPDNVKGRFTISRDSAKKSLYLQMSHLKSEDTAMYYCTKDGGPREGYFDVWGTGTTVTVSS VL: DVLMTQTPLSLPVSLGDQASISCRSSQSIVHSNGNTYLEWYLQKPGQSPKLLIYKVSNRFSGVPDRFSGSGSGTDFTLKISRVEAEDLGVYYCFQGSHVPYTFGGGTKLEIK	binding result [15]: no binding (tested: <3x blank); blocks receptor dimerization [16]: < 50%; binding result [18]: binds; binding result [19]: binds; binding result [20]: binds
binds	no binding (tested: 50 nM)	no binding (tested: 50 nM)	no binding (tested: 50 nM)	no binding (tested: 50 nM)	no binding (tested: 50 nM)		no binding (tested: 50 nM)	no binding (tested: 50 nM)	no binding (tested: 50 nM)	no binding (tested: 50 nM)	binds	no binding			no binding	aNRP2-37v2 (antibody, V domains shown, Mouse monoclonal (captured by anti-murine kappa, detected with anti-mouse IgG)) VH: DVKLVESGEGLVKPGGSLKLSCAASGFTFSDYALSWVRQTPEKRLEWVAYISSGGDYIYYADTVRGRFTISRDNARNTLYLQMSSLQSEDTAIYYCTRGGQDDYWGQGTTLTVSS VL: DVVMTQTPLSLPVILGDQASISCRSSQSLVHSNGNTYLQWYLQKPGQSPKLLIYKVSNRFSGVPDRFSGSGSGTDFTLKISRVEAEDLGVYFCSQSTHVPFTFGSGTNLEIK	binding result [21]: no binding (tested: 50 nM); binding result [22]: no binding (tested: 50 nM)
binds	no binding (tested: 50 nM)	no binding (tested: 50 nM)	no binding (tested: 50 nM)	no binding (tested: 50 nM)	no binding (tested: 50 nM)	no binding (tested: 50 nM)	no binding (tested: 50 nM)	no binding (tested: 50 nM)	no binding (tested: 50 nM)	no binding (tested: 50 nM)	binds	binds	binds	binds		aNRP2-407v2 (antibody, V domains shown, Mouse monoclonal) VH: EVQLQQSGPELVKPGASVTISCKASGYSFTGYYMHWVKQSHVKSLEWIGRINPYNGATSYSQNFKDKASLTIDKSSSTAYMELHSLTSEDSAVYYCAREETTAPFTYWGQGTLVTVSA VL: DIVMSQSPSSLAVSVGEKVTMSCKSSQSLLYSSNQKNYLAWYQQKPGQSPKLLIYWASTRESGVPDRFTGSGSGTDFTLTISSVQAEDLAVYFCQHYYSYPPTFGGGTKLEIK	

— patent US20240417476A1 (ATYR PHARMA, published 2024)
